Earlier results in article PMC3237005.

How the values were obtained:
[1] = biological target: Lethal factor (LF) LFN (Bacillus anthracis) (UniProt P15917)
[2] = biological target: Edema factor (EF) EFN (Bacillus anthracis) (UniProt P40136)

For “Protective antigen (PA63 heptamer) PA63 (from UniProt P13423)”, the Kd [1] is given as 1 nM and the Kd [2] is given as 1 nM.
